Measured values published in patent US12679878B2, “CRF2 receptor agonists and their use in therapy” (SANOFI, priority 2020, dated 2026).
Starred links: 1 amine or outer side, 2 acyl side, 3 side chain; linkers in the order of their positions; H or OH if unused. Non-standard residues stand in square brackets, D forms with d. Groups on a side chain read outwards from the residue. No end group written: not given here. *: point of attachment. C16 diacid = O=C(O)CCCCCCCCCCCCCCC(=O)*; γGlu = O=C(O)[C@H](CCC(=O)[*:2])N[*:1]; Aib = CC(C)(N)C(=O)O

How the values were obtained:
[1] = molecular target: human corticotropin-releasing factor 2α receptor (CRF2α receptor) (human), Q13324; test: cell-based or functional assay
[2] = molecular target: human corticotropin-releasing factor 2α (CRF2α receptor) (human), Q13324; test: cell-based or functional assay
human corticotropin-releasing factor 2α (CRF2α receptor) (human), Q13324, sequence (Q13324 20-411): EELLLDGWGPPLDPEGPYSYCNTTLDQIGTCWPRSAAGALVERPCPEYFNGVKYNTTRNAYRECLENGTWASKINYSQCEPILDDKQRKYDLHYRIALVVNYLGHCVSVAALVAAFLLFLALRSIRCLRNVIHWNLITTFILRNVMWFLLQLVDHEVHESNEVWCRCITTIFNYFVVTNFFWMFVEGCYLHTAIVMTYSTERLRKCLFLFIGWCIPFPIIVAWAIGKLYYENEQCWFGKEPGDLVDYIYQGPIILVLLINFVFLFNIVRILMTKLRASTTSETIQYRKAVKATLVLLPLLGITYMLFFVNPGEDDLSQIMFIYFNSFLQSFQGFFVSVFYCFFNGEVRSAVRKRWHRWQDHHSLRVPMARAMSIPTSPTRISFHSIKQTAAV

human corticotropin-releasing factor 2α receptor (CRF2α receptor) (human), Q13324, sequence (Q13324 20-411): as above

CRF2 EC50 (cAMP, HTRF) [1] [nM]	EC50 [nM], 0% HSA (cAMP, HTRF) [2] [nM]	Binder
1.08	1.08	IVLSLD[dV]PIGLK([γGlu-C16 diacid])QILLKQERQKK[Aib]REQAEKNKRILERV-NH2 (N-terminus assumed; SMILES CC[C@H](C)[C@H](N)C(=O)N[C@H](C(=O)N[C@@H](CC(C)C)C(=O)N[C@@H](CO)C(=O)N[C@@H](CC(C)C)C(=O)N[C@@H](CC(=O)O)C(=O)N[C@@H](C(=O)N1CCC[C@H]1C(=O)N[C@H](C(=O)NCC(=O)N[C@@H](CC(C)C)C(=O)N[C@@H](CCCCNC(=O)CC[C@H](NC(=O)CCCCCCCCCCCCCCC(=O)O)C(=O)O)C(=O)N[C@@H](CCC(N)=O)C(=O)N[C@H](C(=O)N[C@@H](CC(C)C)C(=O)N[C@@H](CC(C)C)C(=O)N[C@@H](CCCCN)C(=O)N[C@@H](CCC(N)=O)C(=O)N[C@@H](CCC(=O)O)C(=O)N[C@@H](CCCNC(=N)N)C(=O)N[C@@H](CCC(N)=O)C(=O)N[C@@H](CCCCN)C(=O)N[C@@H](CCCCN)C(=O)NC(C)(C)C(=O)N[C@@H](CCCNC(=N)N)C(=O)N[C@@H](CCC(=O)O)C(=O)N[C@@H](CCC(N)=O)C(=O)N[C@@H](C)C(=O)N[C@@H](CCC(=O)O)C(=O)N[C@@H](CCCCN)C(=O)N[C@@H](CC(N)=O)C(=O)N[C@@H](CCCCN)C(=O)N[C@@H](CCCNC(=N)N)C(=O)N[C@H](C(=O)N[C@@H](CC(C)C)C(=O)N[C@@H](CCC(=O)O)C(=O)N[C@@H](CCCNC(=N)N)C(=O)N[C@H](C(N)=O)C(C)C)[C@@H](C)CC)[C@@H](C)CC)[C@@H](C)CC)C(C)C)C(C)C) [peptide of SEQ ID NO: 196]
2.27	2.27	IVLSLD[dV]PIKLK([γGlu-C16 diacid])QILLKQARQK[Aib]QRAQAEKNKRILERV-NH2 (N-terminus assumed; SMILES CC[C@H](C)[C@H](N)C(=O)N[C@H](C(=O)N[C@@H](CC(C)C)C(=O)N[C@@H](CO)C(=O)N[C@@H](CC(C)C)C(=O)N[C@@H](CC(=O)O)C(=O)N[C@@H](C(=O)N1CCC[C@H]1C(=O)N[C@H](C(=O)N[C@@H](CCCCN)C(=O)N[C@@H](CC(C)C)C(=O)N[C@@H](CCCCNC(=O)CC[C@H](NC(=O)CCCCCCCCCCCCCCC(=O)O)C(=O)O)C(=O)N[C@@H](CCC(N)=O)C(=O)N[C@H](C(=O)N[C@@H](CC(C)C)C(=O)N[C@@H](CC(C)C)C(=O)N[C@@H](CCCCN)C(=O)N[C@@H](CCC(N)=O)C(=O)N[C@@H](C)C(=O)N[C@@H](CCCNC(=N)N)C(=O)N[C@@H](CCC(N)=O)C(=O)N[C@@H](CCCCN)C(=O)NC(C)(C)C(=O)N[C@@H](CCC(N)=O)C(=O)N[C@@H](CCCNC(=N)N)C(=O)N[C@@H](C)C(=O)N[C@@H](CCC(N)=O)C(=O)N[C@@H](C)C(=O)N[C@@H](CCC(=O)O)C(=O)N[C@@H](CCCCN)C(=O)N[C@@H](CC(N)=O)C(=O)N[C@@H](CCCCN)C(=O)N[C@@H](CCCNC(=N)N)C(=O)N[C@H](C(=O)N[C@@H](CC(C)C)C(=O)N[C@@H](CCC(=O)O)C(=O)N[C@@H](CCCNC(=N)N)C(=O)N[C@H](C(N)=O)C(C)C)[C@@H](C)CC)[C@@H](C)CC)[C@@H](C)CC)C(C)C)C(C)C) [peptide of SEQ ID NO: 197]
0.34	0.34	IVLSLD[dV]PIGLK([γGlu-C16 diacid])QILLKQERQKK[Aib]RQQAETNKRILERV-NH2 (N-terminus assumed; SMILES CC[C@H](C)[C@H](N)C(=O)N[C@H](C(=O)N[C@@H](CC(C)C)C(=O)N[C@@H](CO)C(=O)N[C@@H](CC(C)C)C(=O)N[C@@H](CC(=O)O)C(=O)N[C@@H](C(=O)N1CCC[C@H]1C(=O)N[C@H](C(=O)NCC(=O)N[C@@H](CC(C)C)C(=O)N[C@@H](CCCCNC(=O)CC[C@H](NC(=O)CCCCCCCCCCCCCCC(=O)O)C(=O)O)C(=O)N[C@@H](CCC(N)=O)C(=O)N[C@H](C(=O)N[C@@H](CC(C)C)C(=O)N[C@@H](CC(C)C)C(=O)N[C@@H](CCCCN)C(=O)N[C@@H](CCC(N)=O)C(=O)N[C@@H](CCC(=O)O)C(=O)N[C@@H](CCCNC(=N)N)C(=O)N[C@@H](CCC(N)=O)C(=O)N[C@@H](CCCCN)C(=O)N[C@@H](CCCCN)C(=O)NC(C)(C)C(=O)N[C@@H](CCCNC(=N)N)C(=O)N[C@@H](CCC(N)=O)C(=O)N[C@@H](CCC(N)=O)C(=O)N[C@@H](C)C(=O)N[C@@H](CCC(=O)O)C(=O)N[C@H](C(=O)N[C@@H](CC(N)=O)C(=O)N[C@@H](CCCCN)C(=O)N[C@@H](CCCNC(=N)N)C(=O)N[C@H](C(=O)N[C@@H](CC(C)C)C(=O)N[C@@H](CCC(=O)O)C(=O)N[C@@H](CCCNC(=N)N)C(=O)N[C@H](C(N)=O)C(C)C)[C@@H](C)CC)[C@@H](C)O)[C@@H](C)CC)[C@@H](C)CC)C(C)C)C(C)C) [peptide of SEQ ID NO: 195]

The next lines start with the binder.

Binder	CRF2 EC50 (cAMP, HTRF) [1] [nM]	EC50 [nM], 0% HSA (cAMP, HTRF) [2] [nM]
IVLSLD[dV]PIKLK([γGlu-C16 diacid])QILLKQERQKK[Aib]RQKAEKNKQILAQV-NH2 (N-terminus assumed; SMILES CC[C@H](C)[C@H](N)C(=O)N[C@H](C(=O)N[C@@H](CC(C)C)C(=O)N[C@@H](CO)C(=O)N[C@@H](CC(C)C)C(=O)N[C@@H](CC(=O)O)C(=O)N[C@@H](C(=O)N1CCC[C@H]1C(=O)N[C@H](C(=O)N[C@@H](CCCCN)C(=O)N[C@@H](CC(C)C)C(=O)N[C@@H](CCCCNC(=O)CC[C@H](NC(=O)CCCCCCCCCCCCCCC(=O)O)C(=O)O)C(=O)N[C@@H](CCC(N)=O)C(=O)N[C@H](C(=O)N[C@@H](CC(C)C)C(=O)N[C@@H](CC(C)C)C(=O)N[C@@H](CCCCN)C(=O)N[C@@H](CCC(N)=O)C(=O)N[C@@H](CCC(=O)O)C(=O)N[C@@H](CCCNC(=N)N)C(=O)N[C@@H](CCC(N)=O)C(=O)N[C@@H](CCCCN)C(=O)N[C@@H](CCCCN)C(=O)NC(C)(C)C(=O)N[C@@H](CCCNC(=N)N)C(=O)N[C@@H](CCC(N)=O)C(=O)N[C@@H](CCCCN)C(=O)N[C@@H](C)C(=O)N[C@@H](CCC(=O)O)C(=O)N[C@@H](CCCCN)C(=O)N[C@@H](CC(N)=O)C(=O)N[C@@H](CCCCN)C(=O)N[C@@H](CCC(N)=O)C(=O)N[C@H](C(=O)N[C@@H](CC(C)C)C(=O)N[C@@H](C)C(=O)N[C@@H](CCC(N)=O)C(=O)N[C@H](C(N)=O)C(C)C)[C@@H](C)CC)[C@@H](C)CC)[C@@H](C)CC)C(C)C)C(C)C) [peptide of SEQ ID NO: 189]	3.49	3.49
IVLSLD[dV]PIKLK([γGlu-C16 diacid])QILLKQERQKKQREQAEKNKQILEQV-NH2 (N-terminus assumed; SMILES CC[C@H](C)[C@H](N)C(=O)N[C@H](C(=O)N[C@@H](CC(C)C)C(=O)N[C@@H](CO)C(=O)N[C@@H](CC(C)C)C(=O)N[C@@H](CC(=O)O)C(=O)N[C@@H](C(=O)N1CCC[C@H]1C(=O)N[C@H](C(=O)N[C@@H](CCCCN)C(=O)N[C@@H](CC(C)C)C(=O)N[C@@H](CCCCNC(=O)CC[C@H](NC(=O)CCCCCCCCCCCCCCC(=O)O)C(=O)O)C(=O)N[C@@H](CCC(N)=O)C(=O)N[C@H](C(=O)N[C@@H](CC(C)C)C(=O)N[C@@H](CC(C)C)C(=O)N[C@@H](CCCCN)C(=O)N[C@@H](CCC(N)=O)C(=O)N[C@@H](CCC(=O)O)C(=O)N[C@@H](CCCNC(=N)N)C(=O)N[C@@H](CCC(N)=O)C(=O)N[C@@H](CCCCN)C(=O)N[C@@H](CCCCN)C(=O)N[C@@H](CCC(N)=O)C(=O)N[C@@H](CCCNC(=N)N)C(=O)N[C@@H](CCC(=O)O)C(=O)N[C@@H](CCC(N)=O)C(=O)N[C@@H](C)C(=O)N[C@@H](CCC(=O)O)C(=O)N[C@@H](CCCCN)C(=O)N[C@@H](CC(N)=O)C(=O)N[C@@H](CCCCN)C(=O)N[C@@H](CCC(N)=O)C(=O)N[C@H](C(=O)N[C@@H](CC(C)C)C(=O)N[C@@H](CCC(=O)O)C(=O)N[C@@H](CCC(N)=O)C(=O)N[C@H](C(N)=O)C(C)C)[C@@H](C)CC)[C@@H](C)CC)[C@@H](C)CC)C(C)C)C(C)C) [peptide of SEQ ID NO: 190]	2.47	2.47
IVLSLD[dV]PIGLK([γGlu-C16 diacid])QILLKQERQKK[Aib]REQAETNKRILERV-NH2 (N-terminus assumed; SMILES CC[C@H](C)[C@H](N)C(=O)N[C@H](C(=O)N[C@@H](CC(C)C)C(=O)N[C@@H](CO)C(=O)N[C@@H](CC(C)C)C(=O)N[C@@H](CC(=O)O)C(=O)N[C@@H](C(=O)N1CCC[C@H]1C(=O)N[C@H](C(=O)NCC(=O)N[C@@H](CC(C)C)C(=O)N[C@@H](CCCCNC(=O)CC[C@H](NC(=O)CCCCCCCCCCCCCCC(=O)O)C(=O)O)C(=O)N[C@@H](CCC(N)=O)C(=O)N[C@H](C(=O)N[C@@H](CC(C)C)C(=O)N[C@@H](CC(C)C)C(=O)N[C@@H](CCCCN)C(=O)N[C@@H](CCC(N)=O)C(=O)N[C@@H](CCC(=O)O)C(=O)N[C@@H](CCCNC(=N)N)C(=O)N[C@@H](CCC(N)=O)C(=O)N[C@@H](CCCCN)C(=O)N[C@@H](CCCCN)C(=O)NC(C)(C)C(=O)N[C@@H](CCCNC(=N)N)C(=O)N[C@@H](CCC(=O)O)C(=O)N[C@@H](CCC(N)=O)C(=O)N[C@@H](C)C(=O)N[C@@H](CCC(=O)O)C(=O)N[C@H](C(=O)N[C@@H](CC(N)=O)C(=O)N[C@@H](CCCCN)C(=O)N[C@@H](CCCNC(=N)N)C(=O)N[C@H](C(=O)N[C@@H](CC(C)C)C(=O)N[C@@H](CCC(=O)O)C(=O)N[C@@H](CCCNC(=N)N)C(=O)N[C@H](C(N)=O)C(C)C)[C@@H](C)CC)[C@@H](C)O)[C@@H](C)CC)[C@@H](C)CC)C(C)C)C(C)C) [peptide of SEQ ID NO: 193]	0.82	0.82
